The results in this text go back to patent publication US20260209325A1 (SCHOLAR ROCK, published 2026).

For test [1], the target named is recombinant human latent myostatin (human, UniProt O14793 24-375, biotinylated (in the Octet pH assay only)). The test is described as follows: cell-based or functional assay.
The target in another test is T1, cyno pro-myostatin (cynomolgus monkey, Biotinylated for capture in the SPR assay (site not stated). The native form is a disulfide-linked homodimer, partly furin-cleaved; one chain is given.).
T1 construct: also called proGDF8 (cynomolgus); cynomolgus monkey pro-myostatin
Nature of the test: plate binding assay, absorbance at 450 nm, antibody titrated 100 to about 0.002 nM, panel 'Cyno Pure Pro-GDF-8' (method not described in the text).

Another test has as its target human GDF-11 (human, UniProt O95390 299-407, limits assumed). The test is described as follows: plate binding assay, OD 450 nm, one antibody concentration that is not given, on Hu-GDF-11 (method not described in the text).
The target in another test is mouse GDF-11 (mouse, UniProt Q9Z1W4 297-405, limits assumed). Nature of the test: plate binding assay, OD 450 nm, one antibody concentration that is not given, on Mu-GDF-11 (method not described in the text).
The target of test [2] is T2, human pro-myostatin (human, UniProt O14793 24-375, biotinylated (in the SPR assay)).
T2 construct: Disulfide-linked homodimer; also called proGDF8 (human)
The test is described as follows: plate binding assay, OD 450 nm, antibody titrated 0.0003 to 100 nM, panel 'Hu-Pro-GDF-8 Plate 2' (method not described in the text).

Test [3] deals with T3, murine pro-myostatin (mouse, UniProt O08689 25-376, biotinylated (in the SPR assay)).
T3 construct: also called proGDF8 (mouse); mouse pro-myostatin
Nature of the test: plate binding assay, OD 450 nm, antibody titrated 0.0003 to 100 nM, panel 'Mu-Pro-GDF-8 Plate 2' (method not described in the text).

Test [4] deals with T2, human pro-myostatin. The test is described as follows: plate binding assay, OD 450 nm, antibody titrated 0.0003 to 100 nM, panel 'Hu-Pro-GDF-8 Plate 1' (method not described in the text).
Test [5] deals with T2, human pro-myostatin. The test is described as follows: plate binding assay, OD 450 nm, antibody titrated 0.0003 to 100 nM, panel 'Hu-Pro-GDF-8 Plate 3' (method not described in the text).
Test [6] deals with T3, murine pro-myostatin. Nature of the test: plate binding assay, OD 450 nm, antibody titrated 0.0003 to 100 nM, panel 'Mu-Pro-GDF-8 Plate 3' (method not described in the text).

human GDF-11, sequence (O95390 299-407 limits assumed): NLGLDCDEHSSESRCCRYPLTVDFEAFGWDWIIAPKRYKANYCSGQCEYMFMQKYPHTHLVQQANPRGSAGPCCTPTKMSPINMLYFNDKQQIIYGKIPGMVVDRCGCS
mouse GDF-11, sequence (Q9Z1W4 297-405 limits assumed): as the sequence (O95390 299-407 limits assumed) above

B1: Ab135 (antibody, human IgG4 S228P, kappa, V domains shown)
VH: EVQLVESGGGLVQPGGSLRLSCAASGSAFSSYGMSWVRQAPGKGLELVASINSNGGSTYYPDSVKGRFTISRDNAKNSLYLQMNSLRAEDTAVYYCARDLLVTFLRWSHYYGMDVWGQGTTVTVSS
VL: DIVMTQSPLSLPVTPGEPASISCRSSQSLLHSSGHNFLHWYLQKPGQSPQLLIYEVSNRVSGVPDRFSGSGSGTDFTLKISRVEAEDVGVYYCMQQTQYPPTFGGGTKVEIKR
As for B1, in test [1], the “IC50 (nM) Latent + mTLL2” value is 0.154 nM. In addition, the “EC50 (read off the curve)” value with cyno pro-myostatin was about 0.3 nM.

B2: Ab117 (antibody, human IgG4 S228P, kappa, V domains shown)
VH: QVQLVQSGAEVKKPGASVKVSCKVSGGTFSSHDIHWVRQAPGKGLEWMGGINPSDASTIYAQKFQGRVTMTEDTSTDTAYMELSSLKSEDTAVYYCARDLRGYSYGAETWHFQHWGQGTLVTVSS
VL: DIQMTQSPSSVSASVGDRVTITCRASQYISNYLAWYQQKPGKAPKLLIYETSRLESGVPSRFSGSGSGTDFTLTISSLQPEDFANYYCQQTSSTPLTFGGGTKVEIKR
On to B2, for which the binding result was “no binding” with human GDF-11, “no binding” with mouse GDF-11, “binds” in the test with human pro-myostatin [2] and “binds” with murine pro-myostatin [3].

B3: Ab110 (antibody, human IgG4 S228P, kappa, V domains shown)
VH: QVQLVQSGAEVKKPGASVKVSCKVSEYTFTNYDIHWVRQAPGKGLEWMGGISAYHGNAIYAQKFQGRVTMTEDTSTDTAYMELSSLKSEDTAVYYCARDRVRRDYYNFGMDVWGQGTTVTVSS
VL: DIQMTQSPSSVSASVGDRVTITCRASEDITSYLAWYQQKPGKAPKLLIYDVSSLQSGVPSRFSGSGSGTDFTLTISSLQPEDFANYYCLQHNAYPYGFGGGTKVEIKR
With B3, in the test with human pro-myostatin [4], the “EC50 (read off the curve)” value is about 0.5 nM.

B4: Ab119 (antibody, human IgG4 S228P, kappa, V domains shown)
VH: QVQLVQSGAEVKKPGASVKVSCKVSGYTFTKDHIHWVRQAPGKGLEWMGGITPSSGDTIYAQKFQGRVTMTEDTSTDTAYMELSSLKSEDTAVYYCARDHMVRGLPNYYYGMDLWGQGTTVTVSS
VL: DIQMTQSPSSVSASVGDRVTITCRASRDIANYLAWYQQKPGKAPKLLIYAASILQNGVPSRFSGSGSGTDFTLTISSLQPEDFANYYCQQAYTTPPTFGGGTKVEIKR
In the case of B4, the binding result with human GDF-11 is listed as “no binding”; in the test with mouse GDF-11, “no binding”; with human pro-myostatin [2] it was “binds”; with murine pro-myostatin [3], “binds”.

B5: Ab126 (antibody, human IgG4 S228P, kappa, V domains shown)
VH: EVQLVESGGGLVQPGGSLRLSCTASSFTFSNYAMDWVRQAPGKGLEWVSYISSDASTTYYADSVKGRFTISRDNAKNTLYLQMNSLRAEDTAVYYCARDGGYNPGIFDYWGQGTLVTVSS
VL: DIQMTQSPSSLSASVGDRVTITCQASQSIGRWLNWYQQKPGKAPKLLIYDASILQTGVPSRFSGSGSGTDFTFTISSLQPEDIATYYCQQSFTTPPLTFGGGTKVEIKR
B5: the binding result in the test with human GDF-11 is reported as “no binding”; with mouse GDF-11 it was “no binding”; with human pro-myostatin [5], “binds”; in the test with murine pro-myostatin [6], “binds”.
